Results taken from IntAct's records for PubMed 20871592.

B1: M-phase phosphoprotein 8 (Homo sapiens), Q99549 (parent)
chain: MEQVAEGARVTAVPVSAADSTEELAEVEEGVGVVGEDNDAAARGAEAFGDSEEDGEDVFEVEKILDMKTEGGKVLYKVRWKGYTSDDDTWEPEIHLEDCKEVLLEFRKKIAENKAKAVRKDIQRLSLNNDIFEANSDSDQQSETKEDTSPKKKKKKLRQREEKSPDDLKKKKAKAGKLKDKSKPDLESSLESLVFDLRTKKRISEAKEELKESKKPKKDEVKETKELKKVKKGEIRDLKTKTREDPKENRKTKKEKFVESQVESESSVLNDSPFPEDDSEGLHSDSREEKQNTKSARERAGQDMGLEHGFEKPLDSAMSAEEDTDVRGRRKKKTPRKAEDTRENRKLENKNAFLEKKTVPKKQRNQDRSKSAAELEKLMPVSAQTPKGRRLSGEERGLWSTDSAEEDKETKRNESKEKYQKRHDSDKEEKGRKEPKGLKTLKEIRNAFDLFKLTPEEKNDVSENNRKREEIPLDFKTIDDHKTKENKQSLKERRNTRDETDTWAYIAAEGDQEVLDSVCQADENSDGRQQILSLGMDLQLEWMKLEDFQKHLDGKDENFAATDAIPSNVLRDAVKNGDYITVKVALNSNEEYNLDQEDSSGMTLVMLAAAGGQDDLLRLLITKGAKVNGRQKNGTTALIHAAEKNFLTTVAILLEAGAFVNVQQSNGETALMKACKRGNSDIVRLVIECGADCNILSKHQNSALHFAKQSNNVLVYDLLKNHLETLSRVAEETIKDYFEARLALLEPVFPIACHRLCEGPDFSTDFNYKPPQNIPEGSGILLFIFHANFLGKEVIARLCGPCSVQAVVLNDKFQLPVFLDSHFVYSFSPVAGPNKLFIRLTEAPSAKVKLLIGAYRVQLQ

Variants of: B1
Settings: with h31_human H3C1, P68431

effect of a mutation on the interaction	Variant
disrupting interaction	W80A
